Results published in patent publication US20260317399 (published 2026).
Positions count from the first letter of the chain named. Read-outs that look alike come from different tables or passages of the source.

T1: FcgRIIaH (human, UniProt P12318)
T1 chain: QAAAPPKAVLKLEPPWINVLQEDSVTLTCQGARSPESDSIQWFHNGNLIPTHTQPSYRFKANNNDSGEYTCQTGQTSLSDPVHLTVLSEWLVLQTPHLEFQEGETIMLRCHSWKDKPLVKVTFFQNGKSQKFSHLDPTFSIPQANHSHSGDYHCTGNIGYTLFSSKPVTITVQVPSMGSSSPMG

T2: FcgRIa (human, UniProt P12314)
T2 chain: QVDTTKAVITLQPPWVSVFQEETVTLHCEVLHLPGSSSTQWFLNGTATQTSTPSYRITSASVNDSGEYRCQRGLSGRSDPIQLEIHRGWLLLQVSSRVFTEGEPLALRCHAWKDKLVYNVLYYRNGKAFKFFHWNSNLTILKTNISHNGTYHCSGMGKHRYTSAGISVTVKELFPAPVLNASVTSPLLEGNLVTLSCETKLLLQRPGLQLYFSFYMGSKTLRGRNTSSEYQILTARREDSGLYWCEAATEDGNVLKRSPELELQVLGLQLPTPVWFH

B1: IL6R-BP259/IL6R-L (antibody)
chain 1: QVQLQESGPGLVKPSETLSLTCAVSGHSISHDHAWSWVRQPPGEGLEWIGFISYSGITNYNPSLQGRVTISRDNSKNTLYLQMNSLRAEDTAVYYCARSLARTTAMDYWGEGTLVTVSSASTKGPDVFPLAPSSKSTSGGTAALGCLVKDYFPEPVTVSWNSGALTSGVHTFPAVLQSSGLYSLSSVVTVPSSSLGTQTYICNVNHKPSNTKVDKKVEPKSCDKTHTCPPCPAPDLLGDDSVFLFPPKPKDTLMISRTPEVTCVVVDVSDEDGEVKFNWYVDGVEVHNAKTKPREEQDNSTYRVVSVLTVLHQDWLNGKEYKCKVSNKALPRPIEKTISKAKGQPREPQVYTLPPSRDELTKNQVSLTCLVKGFYPSDIAVEWESNGQPENNYKTTPPVLDSDGSFFLYSKLTVDKSRWQQGNVFSCSVMHEALHNHYTQESLSLSP
chain 2: not shown
B2: IL6R-BP257/IL6R-L (antibody)
chain 1: B1 chain 1 with D126E, D298Y
chain 2: not shown
B3: IL6R-BP260/IL6R-L (antibody)
chain 1: B1 chain 1 with D126E
chain 2: not shown
B4: IL6R-BP419/IL6R-L (antibody)
chain 1: B1 chain 1 with D126S, L237F, D270E
chain 2: not shown
B5: IL6R-AP029/IL6R-BP408/IL6R-L (antibody)
chain 1: B1 chain 1 with D126S, D270E, D358K, H437R, E441K
chain 2: B1 chain 1 with D126S, L237Q, D270E
chain 3: not shown
B6: IL6R-BP256/IL6R-L (antibody)
chain 1: B1 chain 1 with D298Y
chain 2: not shown
B7: BP557 (antibody)
chain 1: B1 chain 1 with D126S, D235E, S269G
chain 2: not shown
B8: IL6R-BP408/IL6R-L (antibody)
chain 1: B1 chain 1 with D126S, L237Q, D270E
chain 2: not shown
B9: IL6R-AP029/IL6R-BP409/IL6R-L (antibody)
chain 1: B1 chain 1 with D126S, D270E, D358K, H437R, E441K
chain 2: B1 chain 1 with D126S, L237E, D270E
chain 3: not shown

Legend:
Test in all cases: SPR
FcgRIIIaV [1] = target: T3, FcgRIIIaV (human, UniProt P08637)
FcgRIIaH [2] = target: T1, FcgRIIaH
FcgRIIaH [3] = target: T1, FcgRIIaH
FcgRIIIaV [4] = target: T3, FcgRIIIaV; remark: listed apart in the source
FcgRIa = target: T2, FcgRIa

T3 sequence (P08637 17-208 F176V): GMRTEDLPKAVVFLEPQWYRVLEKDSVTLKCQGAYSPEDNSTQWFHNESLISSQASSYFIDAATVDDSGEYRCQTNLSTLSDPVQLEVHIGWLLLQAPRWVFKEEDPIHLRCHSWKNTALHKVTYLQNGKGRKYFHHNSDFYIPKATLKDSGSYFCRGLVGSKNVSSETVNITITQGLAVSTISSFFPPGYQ

Row | Kd (FcgRIIIaV [1]) [µM] | Kd (FcgRIIaH [2]) [µM] | Kd (FcgRIIaH [3]) [µM] | Kd (FcgRIIIaV [4]) [µM] | Kd (FcgRIa) [µM] | Binder
1 | 11 | 18 | – | – | – | B1
2 | 19 | 39 | – | – | – | B2
3 | 21 | 3.9 | – | – | – | B3
4 | – | – | 38 | 38 | – | B4
5 | – | – | 8.2 | 31 | – | B5
6 | 11 | 21 | – | – | – | B6
7 | – | – | – | – | 0.013 | B7
8 | – | – | 77 | 50 | – | B8
9 | – | – | 9.4 | 28 | – | B9
